The values that follow are results of earlier work, collected in publication PMC9221429.

The target in series [1] is B-Raf V600E (Homo sapiens) (UniProt P15056).
In a further series the target is B-Raf (Homo sapiens) (UniProt P15056).
Chain of B-Raf (Homo sapiens) (P15056 2-766): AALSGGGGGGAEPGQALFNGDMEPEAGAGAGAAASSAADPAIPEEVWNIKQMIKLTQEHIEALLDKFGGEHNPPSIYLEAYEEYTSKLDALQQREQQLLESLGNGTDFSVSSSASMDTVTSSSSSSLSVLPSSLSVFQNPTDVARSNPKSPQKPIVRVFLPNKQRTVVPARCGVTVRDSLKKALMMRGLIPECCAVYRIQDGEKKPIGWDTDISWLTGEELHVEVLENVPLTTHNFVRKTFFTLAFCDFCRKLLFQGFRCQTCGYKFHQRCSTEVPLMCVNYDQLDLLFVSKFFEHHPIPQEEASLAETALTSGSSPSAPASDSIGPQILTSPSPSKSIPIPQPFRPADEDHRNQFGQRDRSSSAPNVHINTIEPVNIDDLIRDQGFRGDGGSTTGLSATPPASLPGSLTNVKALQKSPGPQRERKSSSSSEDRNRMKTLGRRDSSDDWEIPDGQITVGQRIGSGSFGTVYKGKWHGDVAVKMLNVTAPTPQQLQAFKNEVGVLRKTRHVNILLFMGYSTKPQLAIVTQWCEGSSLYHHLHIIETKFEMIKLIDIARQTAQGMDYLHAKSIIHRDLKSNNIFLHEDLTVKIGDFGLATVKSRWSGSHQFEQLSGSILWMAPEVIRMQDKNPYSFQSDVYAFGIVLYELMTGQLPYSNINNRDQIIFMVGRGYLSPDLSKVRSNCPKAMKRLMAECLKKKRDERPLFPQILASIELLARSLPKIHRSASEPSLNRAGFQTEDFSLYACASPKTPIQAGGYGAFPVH

Chain of Cdc37 (Q16543 2-378): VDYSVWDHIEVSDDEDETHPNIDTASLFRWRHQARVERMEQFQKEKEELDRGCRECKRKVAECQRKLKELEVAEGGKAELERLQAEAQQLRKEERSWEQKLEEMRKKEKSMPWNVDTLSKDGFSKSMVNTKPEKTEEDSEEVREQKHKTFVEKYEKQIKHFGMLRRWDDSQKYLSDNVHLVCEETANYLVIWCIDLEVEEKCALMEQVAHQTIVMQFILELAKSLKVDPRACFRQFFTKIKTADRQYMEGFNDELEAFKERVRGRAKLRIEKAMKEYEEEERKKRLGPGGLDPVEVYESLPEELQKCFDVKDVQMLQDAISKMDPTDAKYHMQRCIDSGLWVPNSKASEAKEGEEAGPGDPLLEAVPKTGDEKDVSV
Chain of B-Raf V600E (Homo sapiens) (P15056 2-766 V600E): as the sequence (P15056 2-766) above, with V599E counted along it

For the substance Cdc37 (from UniProt Q16543), the Kd in series [1] is 400 nM; with B-Raf (Homo sapiens) it was 1000 nM.

As a reminder, the Kd is the concentration at which binding is half-saturated.
